Experimental data reported in article PMC7190626.

Columns and labels:
[1] = cell-impermeable SNAP substrate BG-782 surface labelling; conditions: glycan lost; control: WT SNAP-α1D
[2] = PAGE NIR of SNAP-labelled HEK293 lysate; conditions: glycan lost; control: WT SNAP-α1D
[3] = sucrose density gradient fractionation, PAGE NIR; conditions: glycan lost; control: WT SNAP-α1D
[4] = confocal colocalisation with ER stain CytoPainter; conditions: glycan lost; control: WT SNAP-α1D
[5] = dual SNAP/CLIP tag PAGE NIR; conditions: glycan lost; control: S-WT-C
[6] = SNAP-Capture pull-down, MS/MS peptide coverage; conditions: glycan lost; control: WT SNAP-α1D
[7] = PAGE NIR after 16 hr tunicamycin; conditions: glycan lost; control: EtOH vehicle

Protein	localisation_or_trafficking, other: % change from SNAP alone [1]	other: full-length receptor biogenesis [2]	localisation_or_trafficking, other: % total AUC in low-density (ER) peak [3]	further results
α1D-adrenergic receptor (α1D-AR): N65Q (protein) parent chain: MTFRDLLSVSFEGPRPDSSAGGSSAGGGGGSAGGAAPSEGPAVGGVPGGAGGGGGVVGAGSGEDNRSSAGEPGSAGAGGDVNGTAAVGGLVVSAQGVGVGVFLAAFILMAVAGNLLVILSVACNRHLQTVTNYFIVNLAVADLLLSATVLPFSATMEVLGFWAFGRAFCDVWAAVDVLCCTASILSLCTISVDRYVGVRHSLKYPAIMTERKAAAILALLWVVALVVSVGPLLGWKEPVPPDERFCGITEEAGYAVFSSVCSFYLPMAVIVVMYCRVYVVARSTTRSLEAGVKRERGKASEVVLRIHCRGAATGADGAHGMRSAKGHTFRSSLSVRLLKFSREKKAAKTLAIVVGVFVLCWFPFFFVLPLGSLFPQLKPSEGVFKVIFWLGYFNSCVNPLIYPCSSREFKRAFLRLLRCQCRRRRRRRPLWRVYGHHWRASTSGLRQDCAPSSGDAPPGAPLALTALPDPDPEPPGTPEMQAPVASRRKPPSAFREWRLLGPFRRPTTQLRAKVSSLSHKIRAGGAQRAEAACAQRSEVEAVSLGVPHEVAEGATCQAYELADYSNLRETDI	decreases, 13.40 ± 4.65 vs 46.13 ± 5.61	no change	changes, 46.33 vs 92.47	localisation_or_trafficking, other: Pearson's coefficient [4]: no change, 0.70 ± 0.04 vs 0.72 ± 0.03
α1D-adrenergic receptor (α1D-AR): S-NQQ-C (protein) parent chain: MTFRDLLSVSFEGPRPDSSAGGSSAGGGGGSAGGAAPSEGPAVGGVPGGAGGGGGVVGAGSGEDNRSSAGEPGSAGAGGDVNGTAAVGGLVVSAQGVGVGVFLAAFILMAVAGNLLVILSVACNRHLQTVTNYFIVNLAVADLLLSATVLPFSATMEVLGFWAFGRAFCDVWAAVDVLCCTASILSLCTISVDRYVGVRHSLKYPAIMTERKAAAILALLWVVALVVSVGPLLGWKEPVPPDERFCGITEEAGYAVFSSVCSFYLPMAVIVVMYCRVYVVARSTTRSLEAGVKRERGKASEVVLRIHCRGAATGADGAHGMRSAKGHTFRSSLSVRLLKFSREKKAAKTLAIVVGVFVLCWFPFFFVLPLGSLFPQLKPSEGVFKVIFWLGYFNSCVNPLIYPCSSREFKRAFLRLLRCQCRRRRRRRPLWRVYGHHWRASTSGLRQDCAPSSGDAPPGAPLALTALPDPDPEPPGTPEMQAPVASRRKPPSAFREWRLLGPFRRPTTQLRAKVSSLSHKIRAGGAQRAEAACAQRSEVEAVSLGVPHEVAEGATCQAYELADYSNLRETDI				other: full-length receptor biogenesis [5]: abolishes
α1D-adrenergic receptor (α1D-AR): N82Q (protein) parent chain: MTFRDLLSVSFEGPRPDSSAGGSSAGGGGGSAGGAAPSEGPAVGGVPGGAGGGGGVVGAGSGEDNRSSAGEPGSAGAGGDVNGTAAVGGLVVSAQGVGVGVFLAAFILMAVAGNLLVILSVACNRHLQTVTNYFIVNLAVADLLLSATVLPFSATMEVLGFWAFGRAFCDVWAAVDVLCCTASILSLCTISVDRYVGVRHSLKYPAIMTERKAAAILALLWVVALVVSVGPLLGWKEPVPPDERFCGITEEAGYAVFSSVCSFYLPMAVIVVMYCRVYVVARSTTRSLEAGVKRERGKASEVVLRIHCRGAATGADGAHGMRSAKGHTFRSSLSVRLLKFSREKKAAKTLAIVVGVFVLCWFPFFFVLPLGSLFPQLKPSEGVFKVIFWLGYFNSCVNPLIYPCSSREFKRAFLRLLRCQCRRRRRRRPLWRVYGHHWRASTSGLRQDCAPSSGDAPPGAPLALTALPDPDPEPPGTPEMQAPVASRRKPPSAFREWRLLGPFRRPTTQLRAKVSSLSHKIRAGGAQRAEAACAQRSEVEAVSLGVPHEVAEGATCQAYELADYSNLRETDI	decreases, 9.49 ± 5.95 vs 46.13 ± 5.61	no change	no change, 89.13 vs 92.47	
α1D-adrenergic receptor (α1D-AR): NQQ (protein) parent chain: MTFRDLLSVSFEGPRPDSSAGGSSAGGGGGSAGGAAPSEGPAVGGVPGGAGGGGGVVGAGSGEDNRSSAGEPGSAGAGGDVNGTAAVGGLVVSAQGVGVGVFLAAFILMAVAGNLLVILSVACNRHLQTVTNYFIVNLAVADLLLSATVLPFSATMEVLGFWAFGRAFCDVWAAVDVLCCTASILSLCTISVDRYVGVRHSLKYPAIMTERKAAAILALLWVVALVVSVGPLLGWKEPVPPDERFCGITEEAGYAVFSSVCSFYLPMAVIVVMYCRVYVVARSTTRSLEAGVKRERGKASEVVLRIHCRGAATGADGAHGMRSAKGHTFRSSLSVRLLKFSREKKAAKTLAIVVGVFVLCWFPFFFVLPLGSLFPQLKPSEGVFKVIFWLGYFNSCVNPLIYPCSSREFKRAFLRLLRCQCRRRRRRRPLWRVYGHHWRASTSGLRQDCAPSSGDAPPGAPLALTALPDPDPEPPGTPEMQAPVASRRKPPSAFREWRLLGPFRRPTTQLRAKVSSLSHKIRAGGAQRAEAACAQRSEVEAVSLGVPHEVAEGATCQAYELADYSNLRETDI		abolishes, primarily expressed as a single, robust band of ~43 kDa in size		other: full-length receptor biogenesis [6]: abolishes
α1D-adrenergic receptor (α1D-AR): tunicamycin 5 μg/mL (protein) parent chain: MTFRDLLSVSFEGPRPDSSAGGSSAGGGGGSAGGAAPSEGPAVGGVPGGAGGGGGVVGAGSGEDNRSSAGEPGSAGAGGDVNGTAAVGGLVVSAQGVGVGVFLAAFILMAVAGNLLVILSVACNRHLQTVTNYFIVNLAVADLLLSATVLPFSATMEVLGFWAFGRAFCDVWAAVDVLCCTASILSLCTISVDRYVGVRHSLKYPAIMTERKAAAILALLWVVALVVSVGPLLGWKEPVPPDERFCGITEEAGYAVFSSVCSFYLPMAVIVVMYCRVYVVARSTTRSLEAGVKRERGKASEVVLRIHCRGAATGADGAHGMRSAKGHTFRSSLSVRLLKFSREKKAAKTLAIVVGVFVLCWFPFFFVLPLGSLFPQLKPSEGVFKVIFWLGYFNSCVNPLIYPCSSREFKRAFLRLLRCQCRRRRRRRPLWRVYGHHWRASTSGLRQDCAPSSGDAPPGAPLALTALPDPDPEPPGTPEMQAPVASRRKPPSAFREWRLLGPFRRPTTQLRAKVSSLSHKIRAGGAQRAEAACAQRSEVEAVSLGVPHEVAEGATCQAYELADYSNLRETDI				other: full-length receptor biogenesis [7]: changes
